Test results from patent publication US20230357438A1 (BIOSION, published 2023).
Like-named read-outs stand apart in the source and are kept apart here.

B1: A2E12G12H7 (antibody, V domains shown)
VH: QVQLVQSGAEVKKPGASVKVSCKASGYTFTGYYIHWVRQAPGQGLEWMGWINPNSGSTNSAQKFQDWVTLTRDTSISTAYMELSRLKSDDTAVYYCARRADYYGSGNFYYFDYWGQGTLVTVSS
VL: DIQMTQSPSSVSASVGDRVTISCRASQSISRWLAWYQQKPGKAPKLLIYAATSLQSGVPSRFSGSGFVRDFTLTISSLQPEDFATYYCQQANTFPLIFGGGTKVEIK
notes: Fully human antibody purified from hybridoma; not added here
B2: A5G9C2C7 (antibody, V domains shown)
VH: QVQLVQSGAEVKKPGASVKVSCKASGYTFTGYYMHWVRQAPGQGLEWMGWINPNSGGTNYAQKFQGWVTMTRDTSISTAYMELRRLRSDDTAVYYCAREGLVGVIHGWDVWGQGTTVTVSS
VL: DIQMTQSPSTLSASVGDRVTITCRASQNIYNWLAWYQQKPGKAPKLLIYKASSLESGVPSRFSGSGSGTEFTLTISSLQPDDFATYYCQQYNSNSRTFGQGTKVEIK
notes: as for B1

What was measured:
[1] = target: T1, recombinant human C5-his protein (Sino Biological Inc., Cat#13416-H18H) (human, UniProt P01031 19-1676); experiment: SPR (Biacore T200), antibody captured by anti-human IgG, C5 in flow, 1:1 fit
T1 construct: Bought protein; also called wild type human C5; not shown: his tag

[2] = target: T2, cynomolgus monkey C5-his protein (Acro biosystems, Cat#CO5-C52Hx) (cynomolgus monkey, UniProt A0A2K5U1T1 19-1676); experiment: as above
T2 construct: Bought protein; also called Cynomolgus C5-his; cynomolgus C5; not shown: his tag

[3] = target: T3, mutant human C5 (R885H)-his protein (Acro biosystems, Cat#CO5-H52Hx) (human, UniProt P01031 19-1676); experiment: as above
T3 construct: Bought protein; also called human C5 mutant; not shown: his tag

[4] = target: T2, cynomolgus monkey C5-his protein (Acro …); experiment: indirect ELISA on coated cynomolgus C5-his (1 ug/ml), anti-human IgG Fc-HRP
[5] = target: T3, mutant human C5 (R885H)-his protein …; experiment: indirect ELISA on coated human C5 (R885H)-his (2 ug/ml), anti-human IgG Fc-HRP
[6] = target: T1, recombinant human C5-his protein (Sino …); experiment: capture ELISA: antibody captured on goat anti-human IgG Fc, biotin-labeled human C5-his 0.99 nM, streptavidin-HRP
[7] = target: T1, recombinant human C5-his protein (Sino …); experiment: competitive ELISA: antibody pre-mixed with biotin-labeled human C5-his 0.99 nM, added to coated Eculizumab; partial inhibition only, value below the range tested
[8] = target: T2, cynomolgus monkey C5-his protein (Acro …); experiment: indirect ELISA on coated cynomolgus C5-his (1 ug/ml), anti-human IgG Fc-HRP; remark: listed apart in the source
[9] = target: T3, mutant human C5 (R885H)-his protein …; experiment: indirect ELISA on coated human C5 (R885H)-his (2 ug/ml), anti-human IgG Fc-HRP; remark: listed apart in the source
[10] = target: T1, recombinant human C5-his protein (Sino …); experiment: capture ELISA: antibody captured on goat anti-human IgG Fc, biotin-labeled human C5-his 0.99 nM, streptavidin-HRP; remark: listed apart in the source
[11] = target: T1, recombinant human C5-his protein (Sino …); experiment: competitive ELISA: antibody pre-mixed with biotin-labeled human C5-his 0.99 nM, added to coated Eculizumab; partial inhibition only

| Binder | Kd [1] | koff [1] | kon [1] | Kd [2] | koff [2] | kon [2] | Kd [3] | koff [3] | kon [3] | EC50 [4] | EC50 [5] | EC50 [6] | IC50 [7] | EC50 [8] | EC50 [9] | EC50 [10] | IC50 [11] |
| --- | --- | --- | --- | --- | --- | --- | --- | --- | --- | --- | --- | --- | --- | --- | --- | --- | --- |
| B1 | 1.6 nM | 0.000186 s⁻¹ | 117000 M⁻¹ s⁻¹ | 0.741 nM | 0.000267 s⁻¹ | 360000 M⁻¹ s⁻¹ | 1.32 nM | 0.000408 s⁻¹ | 308000 M⁻¹ s⁻¹ | 0.127 nM | 0.0684 nM | 0.0418 nM | ~1.53 pM |  |  |  |  |
| B2 | 0.262 nM | 3.47e-05 s⁻¹ | 133000 M⁻¹ s⁻¹ | 1.58 nM | 0.000293 s⁻¹ | 185000 M⁻¹ s⁻¹ | 0.303 nM | 0.000153 s⁻¹ | 505000 M⁻¹ s⁻¹ |  |  |  |  | 0.128 nM | 0.0853 nM | 0.0277 nM | ~0.256 nM |
